In patent US8012471B2, “Screening and treatment methods using IGS5 enzymes of the metalloprotease family” (Abbott Healthcare Products B.V., priority 1999, dated 2011):

Experiments:
Format in all cases: biochemical
XCE/DINE = target: T1, XCE/DINE (Homo sapiens, UniProt O95672); test: PACAP(1-27) cleavage by recombinantly produced XCE/DINE; details: assay conditions as for IGS5
T1 sequence (O95672 1-775): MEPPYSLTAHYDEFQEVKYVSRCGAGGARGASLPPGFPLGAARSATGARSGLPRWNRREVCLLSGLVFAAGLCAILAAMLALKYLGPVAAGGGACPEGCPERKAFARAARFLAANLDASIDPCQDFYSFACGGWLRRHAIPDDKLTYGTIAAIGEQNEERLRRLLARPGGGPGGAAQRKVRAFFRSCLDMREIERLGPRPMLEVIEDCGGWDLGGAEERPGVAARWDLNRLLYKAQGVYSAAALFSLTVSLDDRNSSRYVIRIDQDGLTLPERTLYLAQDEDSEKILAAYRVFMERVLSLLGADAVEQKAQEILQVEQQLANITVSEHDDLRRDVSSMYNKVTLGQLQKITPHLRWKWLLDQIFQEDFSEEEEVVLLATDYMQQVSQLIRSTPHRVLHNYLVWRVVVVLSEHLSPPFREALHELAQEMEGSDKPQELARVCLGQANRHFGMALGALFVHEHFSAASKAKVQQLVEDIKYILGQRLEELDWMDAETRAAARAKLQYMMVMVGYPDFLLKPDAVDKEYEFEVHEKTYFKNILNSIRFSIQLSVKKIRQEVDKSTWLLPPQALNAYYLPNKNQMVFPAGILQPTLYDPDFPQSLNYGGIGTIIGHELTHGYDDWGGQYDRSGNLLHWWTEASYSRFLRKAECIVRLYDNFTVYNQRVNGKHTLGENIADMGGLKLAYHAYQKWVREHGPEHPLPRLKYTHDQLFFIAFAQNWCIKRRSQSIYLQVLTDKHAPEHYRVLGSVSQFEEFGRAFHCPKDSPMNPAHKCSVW
Procedure: (§1) A quantity of 80 μl of the assay buffer, 10 μl of enzyme working solution (5 μg/ml) and 10 μl of substrate stock solution (PACAP(1-27)) were mixed in an Eppendorf vial and incubated for 120 min. at 37° C. The enzymatic reaction was subsequently terminated by heating to 95° C. for 5 min. After centrifugation (Heraeus Biofuge B, 3 min) the supernatant was subjected to HPLC
(§2) In addition, it was also analysed whether PACAP(1-27) is cleaved by other recombinantly produced metalloproteases of the M13 family, such as NEP, ECE-1 and XCE/DINE. […] The data summarized herein indicate that PACAP(1-27) might be the physiologically relevant substrate of hSEP.

[1] = target: T2, IGS5 polypeptide (His6-tagged IGS5 ectodomain) (Homo sapiens, UniProt Q495T6, V306M); test: Hydrolysis of vasoactive peptides and PACAP(1-27) by IGS5 polypeptide (HPLC); details: 100 μl assay volume; 100 ng IGS5 polypeptide; 0.5 μM substrate; 2 h, 37° C.
T2 construct: made in house; host or cells: Spodoptera frugiperda Sf9 (baculovirus IGBV73)
T2 sequence (Q495T6 with tags, fused parts or gaps V306M): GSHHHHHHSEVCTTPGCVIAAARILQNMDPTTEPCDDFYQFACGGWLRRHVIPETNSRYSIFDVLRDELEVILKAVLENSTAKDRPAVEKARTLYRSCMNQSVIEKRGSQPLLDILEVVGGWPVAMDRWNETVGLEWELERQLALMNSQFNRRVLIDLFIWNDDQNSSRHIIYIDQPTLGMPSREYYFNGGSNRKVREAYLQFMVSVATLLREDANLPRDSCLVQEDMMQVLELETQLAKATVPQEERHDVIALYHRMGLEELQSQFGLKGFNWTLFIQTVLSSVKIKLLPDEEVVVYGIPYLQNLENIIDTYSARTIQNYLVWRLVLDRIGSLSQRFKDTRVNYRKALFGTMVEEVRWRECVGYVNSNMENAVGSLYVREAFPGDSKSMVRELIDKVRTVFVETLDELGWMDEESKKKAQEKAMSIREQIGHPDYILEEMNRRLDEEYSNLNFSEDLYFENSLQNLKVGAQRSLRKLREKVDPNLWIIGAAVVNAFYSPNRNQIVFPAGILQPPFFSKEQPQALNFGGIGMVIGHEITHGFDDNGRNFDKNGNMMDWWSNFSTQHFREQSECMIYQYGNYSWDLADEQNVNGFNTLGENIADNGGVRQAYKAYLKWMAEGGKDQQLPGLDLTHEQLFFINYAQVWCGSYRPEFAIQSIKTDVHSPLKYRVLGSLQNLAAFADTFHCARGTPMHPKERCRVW
Procedure: The enzymatic activity of IGS5 polypeptides of the invention was tested with regard to the metabolism of biologically active peptides. In particular it was tested whether these IGS5 polypeptides may act on a variety of vasoactive peptides known in the state of the art e.g. such like atrial natriuretic peptide (ANP), bradykinin, big endothelin (Big ET-1), endothelin (ET-1), substance P and angiotensin-1. In the context of the present invention in particular it was tested whether the IGS5 ectodomain, which is a novel human metalloprotease, hydrolyzes said vasoactive peptides. For comparison the assay was also performed for a known member of the metalloprotease family which was described earlier as soluble secreted endopeptidase (SEP) by Ikeda, Emoto et al. (J. Biol. Chem., Vol. 274 (1999): pp. 32469-32477). Furthermore, it was tested whether the activity of IGS5 to convert a Big-ET-1 analogue (the so-called 17 aa Big-ET) may be inhibited by reference compounds that are used to determine the inhibition properties with regard to enzymes having ECE and/or NEP-characteristics. […] It was then checked whether the activity of IGS5 to convert PACAP(1-27) may be inhibited by a compound known to be a IGS5 inhibitor. The compound used to test the inhibition of IGS5-activity on PACAP(1-27) was the active metabolite of (3S,2′R)-3-{1-[2′-(ethoxycarbonyl)-4′-phenylbutyl]-cyclopentane-1-carbonylamino}-2,3,4,5-tetrahydro-2-oxo-1H-1-benzazepine-1-acetic acid (compound Ia-2 from WO 02/094176).
The enzymatic reaction was subsequently terminated by heating to 95° C. for 5 min. After centrifugation (Heraeus Biofuge B, 3 min) the supernatant was subjected to HPLC
In order to separate the remaining substrate from the cleavage products reversed phase HPLC technique was used with a CC 125/4 Nucleosil 300/5 C18 RP column and a CC 8/4 Nucleosil 100/5 C18 precolumn (commercially available from Macherey-Nagel, Duren, Germany). Thus, 60 μl of the reaction samples obtained in Example 7B were injected into the HPLC, and the column was eluted at a flow rate of 1 ml/min by applying the following gradient and solutions: […]
Peptides were detected by absorbance at 214 nm (UV spectroscopy) and/or by fluorescence with an excitation wavelength of 328 nm and an emission wavelength of 393 nm.
% Hydrolysis: For detection of substrate cleavage, the percentage of hydrolysis was calculated by directly comparing the substance peak areas in HPLC traces of the sample without addition of any IGS5 enzyme activity (blank) and of the samples with addition of IGS5 enzyme (sample). % hydrolysis was calculated on basis of the respective peak areas. % hydrolysis=100*(1−(Asample/Ablank))

NEP = NEP (Homo sapiens, UniProt P08473); test: PACAP(1-27) cleavage by recombinantly produced NEP; details: assay conditions as for IGS5
Procedure: as §1, §2

ECE-1 = target: T3, ECE-1 (Homo sapiens, UniProt P42892); test: PACAP(1-27) cleavage by recombinantly produced ECE-1; details: assay conditions as for IGS5
T3 sequence (P42892 1-770): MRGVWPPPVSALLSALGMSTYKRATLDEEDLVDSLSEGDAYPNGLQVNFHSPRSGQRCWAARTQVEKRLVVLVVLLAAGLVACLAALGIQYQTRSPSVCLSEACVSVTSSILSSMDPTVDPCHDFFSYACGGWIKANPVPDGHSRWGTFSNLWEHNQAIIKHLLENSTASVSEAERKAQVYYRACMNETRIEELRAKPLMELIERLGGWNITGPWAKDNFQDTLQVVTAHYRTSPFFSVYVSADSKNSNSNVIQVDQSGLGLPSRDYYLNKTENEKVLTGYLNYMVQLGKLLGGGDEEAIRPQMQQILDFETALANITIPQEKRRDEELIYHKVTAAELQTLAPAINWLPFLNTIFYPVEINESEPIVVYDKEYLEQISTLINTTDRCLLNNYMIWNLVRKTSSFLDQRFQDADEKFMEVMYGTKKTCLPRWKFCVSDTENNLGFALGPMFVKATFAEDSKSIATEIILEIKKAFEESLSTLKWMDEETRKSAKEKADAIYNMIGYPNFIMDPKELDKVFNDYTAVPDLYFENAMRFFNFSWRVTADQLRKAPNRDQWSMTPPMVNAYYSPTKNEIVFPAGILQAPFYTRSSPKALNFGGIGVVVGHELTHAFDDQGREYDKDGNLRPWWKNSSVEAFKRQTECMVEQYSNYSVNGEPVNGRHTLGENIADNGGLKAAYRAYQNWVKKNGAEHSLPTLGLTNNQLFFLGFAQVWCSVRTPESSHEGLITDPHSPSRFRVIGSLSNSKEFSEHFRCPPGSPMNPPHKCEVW
Procedure: as §1, §2

Sequence of NEP (P08473 whole entry): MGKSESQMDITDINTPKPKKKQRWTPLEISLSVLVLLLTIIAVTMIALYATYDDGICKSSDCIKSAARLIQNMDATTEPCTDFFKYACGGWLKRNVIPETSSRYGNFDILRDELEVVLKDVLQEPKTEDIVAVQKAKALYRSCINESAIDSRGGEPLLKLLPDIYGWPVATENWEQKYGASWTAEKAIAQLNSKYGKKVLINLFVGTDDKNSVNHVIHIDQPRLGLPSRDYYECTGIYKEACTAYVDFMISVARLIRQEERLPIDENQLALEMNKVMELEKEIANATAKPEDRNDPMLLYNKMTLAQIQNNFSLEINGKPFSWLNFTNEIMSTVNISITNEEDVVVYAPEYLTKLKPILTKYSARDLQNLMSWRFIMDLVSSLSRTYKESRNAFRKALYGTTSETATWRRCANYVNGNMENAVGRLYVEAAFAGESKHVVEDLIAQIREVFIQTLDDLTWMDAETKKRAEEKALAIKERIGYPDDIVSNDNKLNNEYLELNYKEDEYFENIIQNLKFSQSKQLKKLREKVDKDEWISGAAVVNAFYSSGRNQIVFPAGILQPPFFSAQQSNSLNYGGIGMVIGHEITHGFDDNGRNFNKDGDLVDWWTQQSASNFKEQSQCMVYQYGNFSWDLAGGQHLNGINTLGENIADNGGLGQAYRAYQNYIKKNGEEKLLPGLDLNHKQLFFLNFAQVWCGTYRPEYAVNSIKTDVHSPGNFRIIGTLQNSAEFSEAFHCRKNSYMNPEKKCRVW

Q: How did the “Cleavage of PACAP(1-27) by XCE/DINE” value (XCE/DINE) turn out when “His-Ser-Asp-Gly-Ile-Phe-Thr-Asp-Ser-Tyr-Ser-Arg-Tyr-Arg-Lys-Gln-Met-Ala-Val-Lys-Lys-Tyr-Leu-Ala-Ala-Val-Leu [PACAP (1-27)]” was run?
A: None of the aforementioned enzymes was able to cleave

Q: What about the “% Hydrolysis by IGS5 Polypeptide” value [1] of the same substance?
A: 69%

Q: What about the “Cleavage of PACAP(1-27) by NEP” value (NEP) of the same substance?
A: None of the aforementioned enzymes was able to cleave

Q: And the “Cleavage of PACAP(1-27) by ECE-1” value (ECE-1)?
A: None of the aforementioned enzymes was able to cleave
